{
  "source": "patent US20150140002A1",
  "about": "“USE OF A PCSK9 INHIBITOR TO TREAT […]” (Sanofi, priority 2013, published 2015)",
  "key": {"[1]": {"tested_on": "anti-mAb316P antibodies", "experiment": "Example 2: anti-mAb316P antibody (ADA) bridging immunoassay and neutralizing antibody assay", "format": "in vivo, human", "procedure": "Other endpoints Anti-MAb316P Antibody Assessments: Anti-mAb316P antibodies included the antibody status (positive/negative) and antibody titers.\nSampling time: Serum samples for anti-mAb316P antibody determination were drawn periodically throughout the study. The first scheduled sample at randomization visit was obtained before IMP injection (predose).\nAnti-mAb316P antibody samples were analyzed using a validated non-quantitative, titer-based bridging immunoassay. It involved an initial screen, a confirmation assay based on drug specificity, and a measurement of the titer of anti-MAb316P antibodies in the sample. The lower limit of detection was approximately 1.5 ng/mL.\nSamples that were positive in the ADA assay were assessed for neutralizing antibodies using a validated, non-quantitative, competitive ligand binding assay. The lower limit of detection based on a monoclonal positive control neutralizing antibody is 390 ng/mL."}, "[2]": {"tested_on": "patients with genotype-confirmed hoFH", "conditions": "ezetimibe 10 mg/day added to maximal dose of statins; cited from earlier work"}, "[3]": {"experiment": "Example 2: serum mAb316P concentration (ELISA)", "format": "in vivo, human", "procedure": "If needed, total and free PCSK9 concentrations could be measured from the same PK sample.\nTo collect information on the absorption phase, an optional PK sample was collected at 5 days (±2) after the week 22 IMP injection or at 5 days (±2) after any subsequent IMP injection while the subject was on treatment.\nThe lower limit of quantification (LLQ) for this assay is 0.078 μg/mL."}, "[4]": {"tested_on": "patient population with non-familial hypercholesterolemia or with heterozygous familial hypercholesterolemia", "experiment": "Phase 2 studies / earlier clinical data of mAb316P", "format": "in vivo, human", "text": "The efficacy on LDL-C lowering was associated with consistent results in total-C, ApoB, non-HDL-C and ApoB/ApoA-1 ratio and a positive trend for HDL-C, TG and Lp(a)."}, "[5]": {"tested_on": "healthy subjects and hypercholesterolemic patients (familial or non-familial)", "experiment": "Phase 1 studies of mAb316P (safety, tolerability, PK/PD; IV or SC)", "format": "in vivo, human", "procedure": "Two studies were single dose administration (one study with IV administration of doses from 0.3 mg to 12 mg/kg and another study with SC administration of doses from 50 mg to 250 mg) conducted in healthy subjects with LDL-C>100 mg/dL for whom statin therapy was not indicated. The third study was conducted in hypercholesterolemic patients (familial or non-familial) with single to multiple SC administration of 50 mg, 100 mg, 150 mg and 200 mg either as add-on to stable doses of atorvastatin from 10 mg to 40 mg/day or as monotherapy.\nNo pattern of adverse events (AEs) related to the drug was identified. […] The magnitude and duration of these reductions were positively related to the dose administered. It should also be noted that in the third study, results were similar in the familial and non-familial hypercholesterolemic patients."}, "[6]": {"tested_on": "patients with primary hypercholesterolemia (heFH and non-FH) who are intolerant to statins", "experiment": "Example 3: safety (TEAEs, skeletal muscle-related events)", "conditions": "in vivo"}, "[7]": {"conditions": "clinical data available at commencement of Example 3 study"}},
  "data": [
    {"compound": "O=C1[C@H](CC[C@H](O)c2ccc(F)cc2)[C@@H](c2ccc(O)cc2)N1c1ccc(F)cc1", "note": "[ezetimibe, reference compound]", "values": [
      {"measurement": "patients with treatment emergent anti-drug antibodies", "setting": "[1]; in vivo", "result": "not observed"},
      {"measurement": "total reduction of LDL-C levels", "setting": "[2]", "result": 27, "unit": "%"}
    ]},
    {"compound": "mAb316P: human anti-PCSK9 antibody; heavy chain SEQ ID NO:5, light chain SEQ ID NO:9; HCVR SEQ ID NO:1, LCVR SEQ ID NO:6", "values": [
      {"measurement": "serum MAb316P Ctrough, mean (SD)", "setting": "[3]; Week 4, non-uptitrated (n = 32)", "result": "5784.7 (2456.4) ng/mL"},
      {"measurement": "serum MAb316P Ctrough, mean (SD)", "setting": "[3]; Week 4, uptitrated at Week 12 (n = 14)", "result": "4533.9 (3996.5) ng/mL"},
      {"measurement": "serum MAb316P Ctrough, mean (SD)", "setting": "[3]; Week 12, non-uptitrated (n = 32)", "result": "5979.0 (2780.3) ng/mL"},
      {"measurement": "serum MAb316P Ctrough, mean (SD)", "setting": "[3]; Week 12, uptitrated at Week 12 (n = 14)", "result": "5702.9 (4816.4) ng/mL"},
      {"measurement": "serum MAb316P Ctrough, mean (SD)", "setting": "[3]; Week 24, non-uptitrated, 75 mg Q2W (n = 32)", "result": "6991.4 (4418.4) ng/mL"},
      {"measurement": "serum MAb316P Ctrough, mean (SD)", "setting": "[3]; Week 24, uptitrated to 150 mg Q2W at Week 12 (n = 14)", "result": "14772.2 (10201.7) ng/mL"},
      {"measurement": "change of serum mAb316P levels after uptitration", "setting": "[3]; patients uptitrated at Week 12 (75 to 150 mg Q2W)", "result": "approximately doubled"},
      {"measurement": "LDL-C lowering effect", "setting": "[4]; [7]", "result": "significant LDL-C lowering effect"},
      {"measurement": "tolerability", "setting": "[4]; [7]", "result": "generally well-tolerated"},
      {"measurement": "serum total concentrations of mAb316P during the 8-week follow-up period", "setting": "[4]; preliminary PK data from Phase 2 studies", "result": "still detectable, but at very low levels"},
      {"measurement": "anti-drug antibody titers", "setting": "[1]; all anti-drug antibody-positive patients", "result": "≤ 240"},
      {"measurement": "neutralizing anti-drug antibody", "setting": "[1]; in vivo", "result": "no neutralizing anti-drug antibody"},
      {"measurement": "patients with treatment emergent anti-drug antibodies", "setting": "[1]; in vivo", "result": "6 (12%) patients (%)"},
      {"measurement": "reductions from baseline in LDL-C", "setting": "[5]; Phase 1 studies, up to (maximum)", "result": "up to 60%"},
      {"measurement": "tolerability", "setting": "[5]; healthy subjects and patients, all doses", "result": "generally well tolerated at all doses"},
      {"measurement": "patients positively adjudicated for non-fatal MI", "setting": "[6]", "result": "one (0.8%) patient (%)"}
    ]}
  ]
}
